How the values were obtained:
Experiment in all cases: split reporter
Sil1p = target: T1, Sil1p (S. cerevisiae, UniProt Q08199 20-421)
T1 sequence: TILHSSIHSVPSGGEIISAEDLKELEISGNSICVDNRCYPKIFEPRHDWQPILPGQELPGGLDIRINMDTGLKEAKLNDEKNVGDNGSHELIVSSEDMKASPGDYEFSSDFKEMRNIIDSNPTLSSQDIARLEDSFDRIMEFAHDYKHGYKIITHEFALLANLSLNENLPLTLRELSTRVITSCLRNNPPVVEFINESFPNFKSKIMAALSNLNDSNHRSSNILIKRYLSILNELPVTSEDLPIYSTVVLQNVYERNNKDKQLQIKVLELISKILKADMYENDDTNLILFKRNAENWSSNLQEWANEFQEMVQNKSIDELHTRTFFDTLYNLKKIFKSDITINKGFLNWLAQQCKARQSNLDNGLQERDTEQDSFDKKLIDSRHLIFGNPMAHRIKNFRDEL

Sec20p = target: T2, Sec20p (S. cerevisiae, UniProt P28791 1-383)
T2 sequence: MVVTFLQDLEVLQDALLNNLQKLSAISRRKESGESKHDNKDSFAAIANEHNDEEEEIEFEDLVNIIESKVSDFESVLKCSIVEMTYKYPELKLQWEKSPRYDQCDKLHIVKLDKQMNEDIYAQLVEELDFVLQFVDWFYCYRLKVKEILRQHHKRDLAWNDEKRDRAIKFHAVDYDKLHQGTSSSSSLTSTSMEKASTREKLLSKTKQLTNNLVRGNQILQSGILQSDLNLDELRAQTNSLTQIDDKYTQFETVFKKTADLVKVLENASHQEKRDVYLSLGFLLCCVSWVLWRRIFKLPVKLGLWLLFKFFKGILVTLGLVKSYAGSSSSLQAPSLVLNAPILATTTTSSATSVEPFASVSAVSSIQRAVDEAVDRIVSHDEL

Yos9p = target: T3, Yos9p (S. cerevisiae, UniProt Q99220 22-542)
T3 sequence: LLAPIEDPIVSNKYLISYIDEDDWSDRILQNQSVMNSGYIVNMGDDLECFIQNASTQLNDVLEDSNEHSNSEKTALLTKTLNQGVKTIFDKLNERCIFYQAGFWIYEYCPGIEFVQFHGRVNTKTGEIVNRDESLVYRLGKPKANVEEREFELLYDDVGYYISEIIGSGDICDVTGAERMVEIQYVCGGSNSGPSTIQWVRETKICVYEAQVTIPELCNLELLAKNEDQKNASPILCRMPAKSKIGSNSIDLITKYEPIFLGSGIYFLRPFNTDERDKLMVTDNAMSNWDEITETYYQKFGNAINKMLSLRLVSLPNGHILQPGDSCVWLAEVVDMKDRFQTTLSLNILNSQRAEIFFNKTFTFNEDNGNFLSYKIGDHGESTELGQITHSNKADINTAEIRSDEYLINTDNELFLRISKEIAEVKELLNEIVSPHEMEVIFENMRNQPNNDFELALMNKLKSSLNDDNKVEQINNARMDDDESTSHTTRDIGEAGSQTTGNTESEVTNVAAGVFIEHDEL

Qcr2p = target: T4, Qcr2p (S. cerevisiae, UniProt P07257 17-368)
T4 sequence: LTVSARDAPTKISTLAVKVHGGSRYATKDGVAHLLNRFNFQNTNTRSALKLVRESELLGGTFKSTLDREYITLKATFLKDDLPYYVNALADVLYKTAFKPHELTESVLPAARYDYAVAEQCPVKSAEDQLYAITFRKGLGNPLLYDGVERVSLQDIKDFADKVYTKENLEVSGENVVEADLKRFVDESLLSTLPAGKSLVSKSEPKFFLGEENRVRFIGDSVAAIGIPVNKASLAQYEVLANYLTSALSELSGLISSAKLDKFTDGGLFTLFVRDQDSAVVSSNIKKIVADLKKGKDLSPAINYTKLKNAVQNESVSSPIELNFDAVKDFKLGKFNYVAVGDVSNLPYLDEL

normalized interacting score (Sil1p): 93%
normalized interacting score (Sec20p): 20%
normalized interacting score (Yos9p): > 40%
normalized interacting score (Qcr2p): 22%
B1: Lhs1p (natural protein)
chain: AVLGVDYGQQNIKAIVVSPQAPLELVLTPEAKRKEISGLSIKRLPGYGKDDPNGIERIYGSAVGSLATRFPQNTLLHLKPLLGKSLEDETTVTLYSKQHPGLEMVSTNRSTIAFLVDNVEYPLEELVAMNVQEIANRANSLLKDRDARTEDFVNKMSFTIPDFFDQHQRKALLDASSITTGIEETYLVSEGMSVAVNFVLKQRQFPPGEQQHYIVYDMGSGSIKASMFSILQPEDTTQPVTIEFEGYGYNPHLGGAKFTMDIGSLIENKFLETHPAIRTDELHANPKALAKINQAAEKAKLILSANSEASINIESLINDIDFRTSITRQEFEEFIADSLLDIVKPINDAVTKQFGGYGTNLPEINGVILAGGSSRIPIVQDQLIKLVSEEKVLRNVNADESAVNGVVMRGIKLSNSFKTKPLNVVDRSVNTYSFKLSNESELYDVFTRGSAYPNKTSILTNTTDSIPNNFTIDLFENGKLFETITVNSGAIKNSYSSDKCSSGVAYNITFDLSSDRLFSIQEVNCICQSENDIGNSKQIKNKGSRLAFTSEDVEIKRLSPSERSRLHEHIKLLDKQDKERFQFQENLNVLESNLYDARNLLMDDEVMQNGPKSQVEELSEMVKVYLDWLEDASFDTDPEDIVSRIREIGILKKKIELYMDSAKEPLNSQQFKGMLEEGHKLLQAIETHKNTVEEFLSQFETEFADTIDNVREEFKKIKQPAYVSKALSTWEETLTSFKNSISEIEKFLAKNLFGEDLREHLFEIKLQFDMYRTKLEEKLRLIKSGDESRLNEIKKLHLRNFRLQKRKEEKLKRKLEQEKSRNNNETESTVINSADDKTTIVNDKTTESNPSSEEDILHDEL

From paper doi:10.1101/2024.05.21.594841 (bioRxiv, 2024)
